Tests used:
[1] = molecular target: T1, CCL18_HUMAN (Homo sapiens, UniProt P55774); experiment: Biolayer interferometry (BLI) binding
T1 sequence (P55774 21-89): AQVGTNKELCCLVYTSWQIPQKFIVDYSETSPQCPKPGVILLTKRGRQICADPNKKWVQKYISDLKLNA
How it was run: (§1)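 Kd (M) came from curve fits to association, equilibrium and dissociation phases. Purified His-tagged tick evasin was immobilised on Ni-NTA biosensors; chemokines binding in a 300 nM cross-screen were then tested at a range of concentrations.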

[2] = molecular target: T2, CCL4L1_HUMAN (Homo sapiens, UniProt Q8NHW4); experiment: Biolayer interferometry (BLI) binding
T2 sequence (Q8NHW4 24-92): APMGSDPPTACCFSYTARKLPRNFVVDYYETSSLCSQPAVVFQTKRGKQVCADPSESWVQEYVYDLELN
How it was run: as §1

[3] = molecular target: T3, CCL8_HUMAN (Homo sapiens, UniProt P80075); experiment: Biolayer interferometry (BLI) binding; conditions: read-out: Kd, CCL8_HUMAN
T3 sequence (P80075 24-99): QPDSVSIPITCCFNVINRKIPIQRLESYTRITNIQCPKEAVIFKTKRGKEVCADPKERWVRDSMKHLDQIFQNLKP
How it was run: as §1

[4] = molecular target: T4, CCL1_HUMAN (Homo sapiens, UniProt P22362); experiment: Biolayer interferometry (BLI) binding
T4 sequence (P22362 24-96): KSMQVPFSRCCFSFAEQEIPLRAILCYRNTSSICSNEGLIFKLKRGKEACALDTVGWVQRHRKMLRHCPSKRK
How it was run: as §1

[5] = molecular target: T5, CCL4_HUMAN (Homo sapiens, UniProt P13236); experiment: Biolayer interferometry (BLI) binding
T5 sequence (P13236 24-92): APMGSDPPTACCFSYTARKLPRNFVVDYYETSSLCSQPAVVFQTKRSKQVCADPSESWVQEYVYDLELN
How it was run: as §1

[6] = molecular target: CCL3L1_HUMAN (Homo sapiens, UniProt P16619); experiment: Biolayer interferometry (BLI) binding
Chain of CCL3L1_HUMAN (P16619 24-93): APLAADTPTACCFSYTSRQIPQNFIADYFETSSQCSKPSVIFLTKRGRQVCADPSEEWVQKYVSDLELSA
How it was run: as §1

[7] = molecular target: T6, CCL3_HUMAN (Homo sapiens, UniProt P10147); experiment: Biolayer interferometry (BLI) binding
T6 sequence (P10147 24-92): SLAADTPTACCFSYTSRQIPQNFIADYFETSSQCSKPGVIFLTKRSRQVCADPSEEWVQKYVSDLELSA
How it was run: as §1

[8] = molecular target: CCL7_HUMAN (Homo sapiens, UniProt P80098); experiment: Biolayer interferometry (BLI) binding
Chain of CCL7_HUMAN (P80098 24-99): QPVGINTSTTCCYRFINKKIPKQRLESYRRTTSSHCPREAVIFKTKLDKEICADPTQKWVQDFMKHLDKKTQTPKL
How it was run: as §1

[9] = molecular target: T7, CCL16_HUMAN (Homo sapiens, UniProt O15467); experiment: Biolayer interferometry (BLI) binding
T7 sequence (O15467 24-120): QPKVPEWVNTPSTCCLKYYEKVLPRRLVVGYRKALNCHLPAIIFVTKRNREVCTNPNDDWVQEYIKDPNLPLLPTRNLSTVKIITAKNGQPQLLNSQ
How it was run: as §1

[10] = molecular target: T8, CCL24_HUMAN (Homo sapiens, UniProt O00175); experiment: Biolayer interferometry (BLI) binding
T8 sequence (O00175 27-119): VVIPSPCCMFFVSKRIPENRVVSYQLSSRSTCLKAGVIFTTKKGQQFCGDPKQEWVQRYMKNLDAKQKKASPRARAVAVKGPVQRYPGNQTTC
How it was run: as §1

[11] = molecular target: T9, CCL11_HUMAN (Homo sapiens, UniProt P51671); experiment: Biolayer interferometry (BLI) binding
T9 sequence (P51671 24-97): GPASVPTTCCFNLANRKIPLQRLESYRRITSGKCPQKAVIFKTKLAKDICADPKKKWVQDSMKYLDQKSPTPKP
How it was run: as §1

[12] = molecular target: T10, CCL5_HUMAN (Homo sapiens, UniProt P13501); experiment: Biolayer interferometry (BLI) binding
T10 sequence (P13501 24-91): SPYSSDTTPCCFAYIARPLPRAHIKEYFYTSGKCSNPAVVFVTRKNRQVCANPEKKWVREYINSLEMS
How it was run: as §1

[13] = molecular target: CCL13_HUMAN (Homo sapiens, UniProt Q99616); experiment: Biolayer interferometry (BLI) binding
Chain of CCL13_HUMAN (Q99616 17-98): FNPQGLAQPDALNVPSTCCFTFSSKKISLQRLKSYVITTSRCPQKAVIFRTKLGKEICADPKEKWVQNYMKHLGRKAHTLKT
How it was run: as §1

[14] = molecular target: CCL2_HUMAN (Homo sapiens, UniProt P13500); experiment: Biolayer interferometry (BLI) binding
Chain of CCL2_HUMAN (P13500 24-99): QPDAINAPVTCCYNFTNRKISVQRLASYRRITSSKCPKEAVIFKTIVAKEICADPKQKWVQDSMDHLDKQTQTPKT
How it was run: as §1

[15] = molecular target: T3, CCL8_HUMAN; experiment: Yeast surface display (YSD) FACS binding
How it was run: (§2)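 Yeast clones displaying tick peptides were re-tested by FACS with labelled chemokine. Binding = % of peptide-expressing yeast above a background threshold set with streptavidin-Alexa647 alone; the mean percent shift was used where several clones were isolated. Confirmed binding ("YES") required >3-fold over background mean fluorescence intensity.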

[16] = molecular target: T11, CCL17_HUMAN (Homo sapiens, UniProt Q92583); experiment: Yeast surface display (YSD) FACS binding
T11 sequence (Q92583 24-94): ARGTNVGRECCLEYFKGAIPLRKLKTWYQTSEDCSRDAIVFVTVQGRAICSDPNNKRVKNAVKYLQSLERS
How it was run: as §2

[17] = molecular target: T6, CCL3_HUMAN; experiment: Yeast surface display (YSD) FACS binding
How it was run: as §2

[18] = molecular target: CCL20_HUMAN (Homo sapiens, UniProt P78556); experiment: Yeast surface display (YSD) FACS binding
Chain of CCL20_HUMAN (P78556 27-96): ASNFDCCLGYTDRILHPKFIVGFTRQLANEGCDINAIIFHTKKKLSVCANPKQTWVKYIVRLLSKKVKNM
How it was run: as §2

[19] = molecular target: T9, CCL11_HUMAN; experiment: Yeast surface display (YSD) FACS binding
How it was run: as §2

[20] = molecular target: T10, CCL5_HUMAN; experiment: Yeast surface display (YSD) FACS binding
How it was run: as §2

[21] = molecular target: T12, CXCL8_HUMAN (Homo sapiens, UniProt P10145); experiment: Yeast surface display (YSD) FACS binding; set-up: label (chemical); conditions: yeast surface display
T12 sequence (P10145 21-99): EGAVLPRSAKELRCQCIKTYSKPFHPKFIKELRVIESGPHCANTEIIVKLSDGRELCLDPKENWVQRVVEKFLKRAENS
How it was run: (§3)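 Yeast clones displaying tick peptides were re-tested by FACS with labelled chemokine detected by streptavidin-Alexa conjugate. Binding was scored as % of peptide-expressing cells above a background set with streptavidin-Alexa alone, averaged over independent clones. In the screen tables, >3-fold over background mean fluorescence intensity was scored as binding.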

[22] = molecular target: T1, CCL18_HUMAN; experiment: Yeast surface display (YSD) FACS binding
How it was run: as §2

[23] = molecular target: CXCL12_HUMAN (Homo sapiens, UniProt P48061); experiment: Yeast surface display (YSD) FACS binding; conditions: yeast surface display
Chain of CXCL12_HUMAN (P48061 22-93): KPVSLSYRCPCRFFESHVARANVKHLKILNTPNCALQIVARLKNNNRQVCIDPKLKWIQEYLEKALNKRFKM
How it was run: as §3

[24] = molecular target: T13, CCL25_HUMAN (Homo sapiens, UniProt O15444); experiment: Yeast surface display (YSD) FACS binding
T13 sequence (O15444 24-150): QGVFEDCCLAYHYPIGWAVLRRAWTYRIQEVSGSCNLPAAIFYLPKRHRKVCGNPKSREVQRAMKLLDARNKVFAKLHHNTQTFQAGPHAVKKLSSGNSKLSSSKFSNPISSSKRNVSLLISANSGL
How it was run: as §2

B1: P985_AMBPA: tick CKBP, Amblyomma parvum (protein, listed as Amblyomma parvum)
chain: DEESEELGASTDVDYEELDANCTCPAPALTSTRNNKHYPLGCIYNCSSYNCTIPDGTPCYVLTLGEVKEHLQIGSTVPNCTCGLCRNGTCVSNGTVEECFAVEEIEET
[1]
  Kd: 0.43 µM
[2]
  Kd: 0.021 µM
[3]
  Kd: 0.0065 µM
[4]
  Kd: 0.0083 µM
[5]
  Kd: 0.046 µM
[6]
  Kd: 0.0075 µM
[7]
  Kd: 0.0089 µM
[8]
  Kd: 0.061 µM
[9]
  Kd: 0.045 µM
[10]
  Kd: 0.041 µM
[11]
  Kd: 0.008 µM
[12]
  Kd: 0.0035 µM
[13]
  Kd: 0.089 µM
[14]
  Kd: 0.017 µM

B2: P1030_AMBPA: tick CKBP, Amblyomma parvum (protein, listed as Amblyomma parvum)
chain: GPPSIPGNESIPGCGDAGTTTAPEDNPKHYGTLTDKKGCTLPIIGTWMTAVDHQHLQGTRGERRGPTGKVNLPASCRKNCHGRQEILRDGIPCRKVVGNPKGSKKHLKSGCLRGKCLAGQCVNDGRRISCYVPRNITDTEPTPGLLAE
[15]
  Binding to CCL8_HUMAN, YSD: YES (An arbitrary threshold of >3 fold over background mean fluorescence intensity was chosen to describe confirmed re-tests. Where binding was detected data are indicated as “YES”)
[16]
  Binding to CCL17_HUMAN, YSD: YES (An arbitrary threshold of >3 fold over background mean fluorescence intensity was chosen to describe confirmed re-tests. Where binding was detected data are indicated as “YES”)
[17]
  Binding to CCL3_HUMAN, YSD: YES (An arbitrary threshold of >3 fold over background mean fluorescence intensity was chosen to describe confirmed re-tests. Where binding was detected data are indicated as “YES”)
[18]
  Binding to CCL20_HUMAN, YSD: YES (An arbitrary threshold of >3 fold over background mean fluorescence intensity was chosen to describe confirmed re-tests. Where binding was detected data are indicated as “YES”)
[19]
  Binding to CCL11_HUMAN, YSD: YES (An arbitrary threshold of >3 fold over background mean fluorescence intensity was chosen to describe confirmed re-tests. Where binding was detected data are indicated as “YES”)
[20]
  Binding to CCL5_HUMAN, YSD: YES (An arbitrary threshold of >3 fold over background mean fluorescence intensity was chosen to describe confirmed re-tests. Where binding was detected data are indicated as “YES”)
[21]
  Binding to CXCL8_HUMAN, YSD: YES (An arbitrary threshold of >3 fold over background mean fluorescence intensity was chosen to describe confirmed re-tests. Where binding was detected data are indicated as “YES”)

B3: P1215_AMBPA: tick CKBP, Amblyomma parvum (protein, listed as Amblyomma parvum)
chain: KTDTKNAAGELPPKVVIPGCEDPATTKAPLPDEPPYYGITIDKDGCQRKVLGSSQRQQRKVQNGRKLDGKKRGRRPVFVDLELTVDCKRKCNGTYSQLPDGENCLVSDGYPYGRWGTIKGGCYQGNCSSGQCHRGEKKVNCYLPKNITNDVPKSLNLAE
[22]
  Binding to CCL18_HUMAN, YSD: YES (An arbitrary threshold of >3 fold over background mean fluorescence intensity was chosen to describe confirmed re-tests. Where binding was detected data are indicated as “YES”)
[23]
  Binding to CXCL12_HUMAN, YSD: YES (An arbitrary threshold of >3 fold over background mean fluorescence intensity was chosen to describe confirmed re-tests. Where binding was detected data are indicated as “YES”)
[19]
  Binding to CCL11_HUMAN, YSD: YES (An arbitrary threshold of >3 fold over background mean fluorescence intensity was chosen to describe confirmed re-tests. Where binding was detected data are indicated as “YES”)
[20]
  Binding to CCL5_HUMAN, YSD: YES (An arbitrary threshold of >3 fold over background mean fluorescence intensity was chosen to describe confirmed re-tests. Where binding was detected data are indicated as “YES”)

B4: P698_RHISA: tick CKBP, Rhipicephalus sanguineus (protein, listed as Rhipicephalus sanguineus)
chain: NEDDSSDYYDASPMNCSSMSVNSTMGWLSMNCTMSCNGTTFPLSNSTHCFHSYTNLTVQSRMETMTYNCSVGTCSNGTCVENGTTTTCW
[15]
  Binding to CCL8_HUMAN, YSD: YES (An arbitrary threshold of >3 fold over background mean fluorescence intensity was chosen to describe confirmed re-tests. Where binding was detected data are indicated as “YES”)
[20]
  Binding to CCL5_HUMAN, YSD: YES (An arbitrary threshold of >3 fold over background mean fluorescence intensity was chosen to describe confirmed re-tests. Where binding was detected data are indicated as “YES”)

B5: P1011_AMBTR: tick CKBP, Amblyomma triste (protein)
chain: EKDTPKNIPGCEDAGTTAAPPADNPKHYAVYTDKNGCTFKVIGTWMTKEDHRRLPVSLRRVRASSGRVKLPASCQKICKHSVKKFPEGTPCRLVTRDPIKGKNHIKNGCIRGYCSSGVCVSDNRSISCYVLPNNTELTSPSGSFAE
modifications: Amblyomma triste
[22]
  Binding to CCL18_HUMAN, YSD: YES (An arbitrary threshold of >3 fold over background mean fluorescence intensity was chosen to describe confirmed re-tests. Where binding was detected data are indicated as “YES”)
[16]
  Binding to CCL17_HUMAN, YSD: YES (An arbitrary threshold of >3 fold over background mean fluorescence intensity was chosen to describe confirmed re-tests. Where binding was detected data are indicated as “YES”)
[24]
  Binding to CCL25_HUMAN, YSD: YES (An arbitrary threshold of >3 fold over background mean fluorescence intensity was chosen to describe confirmed re-tests. Where binding was detected data are indicated as “YES”)
[19]
  Binding to CCL11_HUMAN, YSD: YES (An arbitrary threshold of >3 fold over background mean fluorescence intensity was chosen to describe confirmed re-tests. Where binding was detected data are indicated as “YES”)
[20]
  Binding to CCL5_HUMAN, YSD: YES (An arbitrary threshold of >3 fold over background mean fluorescence intensity was chosen to describe confirmed re-tests. Where binding was detected data are indicated as “YES”)

B6: P1220_IXORI: tick CKBP, Ixodes ricinus (protein, listed as Ixodes ricinus)
chain: GSTPSAMKTEDILKVLGSTSSLENHTDSSHCRYQELLDITKNIENAGFLAINCQRSCPNGKQTMVEGYGCIFKIKHATKRGKVKVKEGSCRKGACVRGSTRPPWRLLVLLGESKEEEFL
[24]
  Binding to CCL25_HUMAN, YSD: YES (An arbitrary threshold of >3 fold over background mean fluorescence intensity was chosen to describe confirmed re-tests. Where binding was detected data are indicated as “YES”)
